This is an account of results in article PMC11239673, “Structural basis for the bi-specificity of USP25 and USP28 inhibitors” (EMBO Reports, 2024).

Several values for one entry are separate records, joined by “and”; a condition that tells them apart may be missing. Identical values can stand only once.

Conditions in all cases: remark: other sources report otherwise
Assay [1] addresses T1, full-length USP25 (USP25 1-1055) (human), Q9UHP3.
T1 chain: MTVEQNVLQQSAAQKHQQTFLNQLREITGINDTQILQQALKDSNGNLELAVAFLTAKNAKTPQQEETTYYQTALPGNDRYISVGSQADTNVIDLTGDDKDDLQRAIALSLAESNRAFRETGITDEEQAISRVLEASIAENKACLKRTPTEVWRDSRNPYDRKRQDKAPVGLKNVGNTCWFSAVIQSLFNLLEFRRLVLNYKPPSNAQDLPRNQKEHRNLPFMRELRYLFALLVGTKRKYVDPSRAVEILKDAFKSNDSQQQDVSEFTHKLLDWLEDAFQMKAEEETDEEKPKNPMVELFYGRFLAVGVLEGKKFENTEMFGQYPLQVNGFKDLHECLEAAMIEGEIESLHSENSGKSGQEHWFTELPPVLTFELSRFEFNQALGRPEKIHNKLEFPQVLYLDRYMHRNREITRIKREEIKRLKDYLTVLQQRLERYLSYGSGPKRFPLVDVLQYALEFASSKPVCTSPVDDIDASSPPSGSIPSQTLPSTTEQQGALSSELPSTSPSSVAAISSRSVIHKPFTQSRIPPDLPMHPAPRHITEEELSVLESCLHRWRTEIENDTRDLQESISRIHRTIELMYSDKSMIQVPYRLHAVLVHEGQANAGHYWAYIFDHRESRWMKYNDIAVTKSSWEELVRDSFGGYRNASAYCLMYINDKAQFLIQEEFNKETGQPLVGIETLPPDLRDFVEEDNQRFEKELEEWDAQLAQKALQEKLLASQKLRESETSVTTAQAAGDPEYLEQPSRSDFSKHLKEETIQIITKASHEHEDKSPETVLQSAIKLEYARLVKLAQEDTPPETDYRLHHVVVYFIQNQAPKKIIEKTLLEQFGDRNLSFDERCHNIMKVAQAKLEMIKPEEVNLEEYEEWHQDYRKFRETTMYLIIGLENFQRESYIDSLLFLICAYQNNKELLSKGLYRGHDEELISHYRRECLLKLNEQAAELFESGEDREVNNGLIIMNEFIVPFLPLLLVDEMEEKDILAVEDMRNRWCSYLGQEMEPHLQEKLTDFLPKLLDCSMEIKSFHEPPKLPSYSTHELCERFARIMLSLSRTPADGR
Put plainly: SEC-MALS; tetramer to dimers; 20 µM USP25fl with 60 µM AZ1, 45 min incubation at 4 °C; Superose 6 10/300 GL; 20 mM HEPES pH 8.0, 150 mM NaCl, 1 mM TCEP.

Assay [2] deals with T1, full-length USP25 (USP25 1-1055) …. As to the kind of experiment: SEC-MALS; tetramer to dimers; 10 µM USP25fl with 5, 10 or 20 µM AZ1, 45 min incubation at 4 °C; Superose 6 10/300 GL; 20 mM HEPES pH 8.0, 150 mM NaCl, 1 mM TCEP. Background: SEC sorts molecules by how far they enter the pores of the column.
For assay [3] the target is unchanged. Put plainly: SEC-MALS; tetramer to dimers; 10 µM USP25fl with 5, 10 or 20 µM racemic FT206, 45 min incubation at 4 °C; Superose 6 10/300 GL; 20 mM HEPES pH 8.0, 150 mM NaCl, 1 mM TCEP.
Assay [4] shares this target. Put plainly: SEC-MALS; tetramer to dimers; 20 µM USP25fl with 60 µM racemic FT206, 45 min incubation at 4 °C; Superose 6 10/300 GL; 20 mM HEPES pH 8.0, 150 mM NaCl, 1 mM TCEP.
Assay [5] shares this target. Put plainly: SEC-MALS; tetramer to dimers; 20 µM USP25fl with DMSO control, 45 min incubation at 4 °C; Superose 6 10/300 GL; 20 mM HEPES pH 8.0, 150 mM NaCl, 1 mM TCEP.
Assay [6] shares this target. Put plainly: SEC-MALS; tetramer to dimers; 20 µM USP25fl with 60 µM VSM, 45 min incubation at 4 °C; Superose 6 10/300 GL; 20 mM HEPES pH 8.0, 150 mM NaCl, 1 mM TCEP.
Assay [7] has the same target. Put plainly: SEC-MALS; tetramer to dimers; 10 µM USP25fl with DMSO control, 45 min incubation at 4 °C; Superose 6 10/300 GL; 20 mM HEPES pH 8.0, 150 mM NaCl, 1 mM TCEP.

B1: full-length USP25 (USP25 1-1055), Q9UHP3 1-1055 (enzyme)
chain: T1 chain
A word on the stoichiometry N: it is the number of molecules, sites or subunits per partner or assembly. Regarding B1, in assay [1], the percent dimers (with 60 µM AZ1) was 80.8%. Moreover, the percent dimers (with 20 µM AZ1) in assay [2] was 46%. For the same molecule, in assay [3], the percent dimers (with 10 µM FT206) is 50% and the percent dimers (with 20 µM FT206) was 76%. For the same molecule, the percent dimers (with 60 µM FT206) in assay [4] was 77.7%. Moreover, the percent dimers (DMSO control) in assay [5] was 26.2%. This molecule gave a percent dimers (with 60 µM VSM) in assay [6] of 75%. In assay [7], the percent dimers worked out at 25%, the percent dimers (DMSO control of the AZ1 series) stood at 23%, the percent dimers (DMSO control of the FT206 series) was found to be 28% and the percent tetramers was 75%. Further, the stoichiometry N in assay [7] is 4 and 2.
